Positions count from the first letter of the chain named. Names may count otherwise.

Common to all, as to conditions: both partners purified
Assay [1] addresses T1, Spc105-Flag/Kre28 complex (S. cerevisiae, UniProt P53148 1-917; Q04431 1-385).
T1 construct: Spc105 (Knl1 homologue), S. cerevisiae; Kre28 (Zwint homologue), S. cerevisiae, wild type; the asterisk is not explained; A potential proteolysis product of full-length Spc105 is marked in the gels; also called Spc105/Kre28; K subcomplex; source: Sf9 insect cells (baculovirus pFAP10), purified on anti-Flag M2 beads; also as part of the co-expressed KMN network (KT1-5 and KT1-6); not shown: Flag, …
T1 sequence (looked up) 1: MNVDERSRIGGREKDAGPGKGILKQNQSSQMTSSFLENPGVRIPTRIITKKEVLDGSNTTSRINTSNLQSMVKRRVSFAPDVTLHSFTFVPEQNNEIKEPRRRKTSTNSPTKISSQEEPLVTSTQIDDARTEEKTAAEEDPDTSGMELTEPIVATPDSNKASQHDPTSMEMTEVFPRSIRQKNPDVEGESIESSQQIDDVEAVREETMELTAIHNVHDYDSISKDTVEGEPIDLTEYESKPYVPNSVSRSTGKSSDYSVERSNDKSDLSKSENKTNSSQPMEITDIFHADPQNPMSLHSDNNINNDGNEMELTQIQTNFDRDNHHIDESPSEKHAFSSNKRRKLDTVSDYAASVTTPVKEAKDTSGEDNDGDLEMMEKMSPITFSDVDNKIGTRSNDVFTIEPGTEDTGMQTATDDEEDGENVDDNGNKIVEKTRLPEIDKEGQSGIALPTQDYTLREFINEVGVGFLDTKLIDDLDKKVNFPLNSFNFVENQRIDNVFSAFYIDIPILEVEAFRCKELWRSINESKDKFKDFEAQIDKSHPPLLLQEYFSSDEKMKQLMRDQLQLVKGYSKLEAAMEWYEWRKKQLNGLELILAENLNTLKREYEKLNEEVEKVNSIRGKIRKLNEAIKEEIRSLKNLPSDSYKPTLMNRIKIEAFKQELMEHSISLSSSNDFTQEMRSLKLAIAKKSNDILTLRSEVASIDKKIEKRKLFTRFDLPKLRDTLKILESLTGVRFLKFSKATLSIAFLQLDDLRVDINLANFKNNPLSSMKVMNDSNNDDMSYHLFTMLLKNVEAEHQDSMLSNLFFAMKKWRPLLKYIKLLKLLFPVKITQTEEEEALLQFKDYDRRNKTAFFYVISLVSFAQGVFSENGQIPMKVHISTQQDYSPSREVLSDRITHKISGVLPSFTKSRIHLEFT
T1 sequence (looked up) 2: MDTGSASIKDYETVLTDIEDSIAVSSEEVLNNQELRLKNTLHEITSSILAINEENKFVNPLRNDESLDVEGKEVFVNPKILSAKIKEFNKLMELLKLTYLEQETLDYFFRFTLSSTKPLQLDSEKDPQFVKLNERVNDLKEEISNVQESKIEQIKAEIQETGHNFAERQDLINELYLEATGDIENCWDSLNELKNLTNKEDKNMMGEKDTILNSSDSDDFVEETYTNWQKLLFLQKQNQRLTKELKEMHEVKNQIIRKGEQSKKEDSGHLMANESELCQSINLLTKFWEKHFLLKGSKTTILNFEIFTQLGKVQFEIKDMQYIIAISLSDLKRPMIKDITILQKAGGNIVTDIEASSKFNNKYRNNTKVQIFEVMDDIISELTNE
In words: pull-down; KMN or its subcomplexes from Sf9 cells immobilised on anti-Flag M2 beads; 100 µl of 2 µM Ipl1/Sli15 added to ~20 µl beads; 4 °C, 6 h; 25 mM HEPES pH 7.4, 200 mM NaCl, 1 mM MgCl2, 2.5% glycerol, 0.01% Tween-20; eluted with 3xFlag peptide; Coomassie and anti-His blot; also done with prolonged incubation times (Fig. EV3A).

Assay [2] has as its target T2, recombinant budding yeast KMN network (Spc105-Flag/Kre28^WT, Mtw1 complex, Ndc80 complex) (S. cerevisiae, UniProt P53148 1-917; Q04431 1-385; P39731 1-289; P40568 1-576; P47149 1-201; Q12143 …).
T2 construct: Spc105 (Knl1 homologue), S. cerevisiae; Kre28 (Zwint homologue), S. cerevisiae, wild type; Mtw1, S. cerevisiae; Dsn1, S. cerevisiae; Nnf1, S. cerevisiae; Nsl1, S. cerevisiae; Ndc80, S. cerevisiae; Nuf2, S. cerevisiae; Spc24, S. cerevisiae; Spc25, S. cerevisiae; also called wild-type Kre28 KMN network; not shown: Flag, C-terminal, kept; copies: + + + + + + + + +
The experiment in a line: cross-linking; recombinant KMN and Ipl1/Sli15 mixed at equimolar amounts, BS3 (d0/d12), 35 °C, 30 min; cross-links identified by mass spectrometry (xQuest).

The target of assay [3] is T3, recombinant KMN network containing Kre28^ΔZwint (S. cerevisiae, UniProt P53148 1-917; Q04431 1-385; P39731 1-289; P40568 1-576; P47149 1-201; Q12143 …, ΔZwint (Zwint helix, residues 77–113)).
T3 construct: Spc105 (Knl1 homologue), S. cerevisiae; Mtw1, S. cerevisiae; Dsn1, S. cerevisiae; Nnf1, S. cerevisiae; Nsl1, S. cerevisiae; Ndc80, S. cerevisiae; Nuf2, S. cerevisiae; Spc24, S. cerevisiae; Spc25, S. cerevisiae; also called Kre28^ΔZwint KMN network; mutant KMN network; source: Sf9 insect cells, baculoviruses KT1-5 and KT1-6 mut, purified via Spc105-Flag on anti-Flag M2 beads; not shown: Flag, …
In words: pull-down; KMN or its subcomplexes from Sf9 cells immobilised on anti-Flag M2 beads; 100 µl of 2 µM Ipl1/Sli15 added to ~20 µl beads; 4 °C, 6 h; 25 mM HEPES pH 7.4, 200 mM NaCl, 1 mM MgCl2, 2.5% glycerol, 0.01% Tween-20; eluted with 3xFlag peptide; Coomassie and anti-His blot; also done with prolonged incubation times (Fig. EV3A).

B1: Ipl1/6xHis-Sli15 complex, dephosphorylated by λ phosphatase (complex, S. cerevisiae)
chain 1: MQRNSLVNIKLNANSPSKKTTTRPNTSRINKPWRISHSPQQRNPNSKIPSPVREKLNRLPVNNKKFLDMESSKIPSPIRKATSSKMIHENKKLPKFKSLSLDDFELGKKLGKGKFGKVYCVRHRSTGYICALKVMEKEEIIKYNLQKQFRREVEIQTSLNHPNLTKSYGYFHDEKRVYLLMEYLVNGEMYKLLRLHGPFNDILASDYIYQIANALDYMHKKNIIHRDIKPENILIGFNNVIKLTDFGWSIINPPENRRKTVCGTIDYLSPEMVESREYDHTIDAWALGVLAFELLTGAPPFEEEMKDTTYKRIAALDIKMPSNISQDAQDLILKLLKYDPKDRMRLGDVKMHPWILRNKPFWENKRL
chain 2: MDWAIKAARKKTQRKPGSTRSIIETLDDLNNLTTDAHSEINQRLYESSEWLRNNVYMNTLKYEDKKMEESLISPENTHNKMDVEFPKMKGEYELSNSQNDAAKDVTKTPRNGLHNDKSITPKSLRRKEVTEGMNRFSIHDTNKSPVEPLNSVKVDANESEKSSPWSPYKVEKVLRESSKTSESPINTKRFDNQTWAAKEEMENEPILQALKKAESVKVKPPPNSGIARSQRRSNMFVPLPNKDPLIIQHIPPTKSSGSIPKVRTVKESPIAFKKKSTINSPAIRAVENSDTAGSTKASSVFDRLSSIPTKSFENKISRGNVGHKYSSSSIDLTGSPMKKVSQKFKSINSTDTDMQEALRDIFSVKNKITKNNSPKGKNSRKSSIPRFDKTSLKLTTHKKLAIIAEQKKKSKHSSDVHKTGSRPHSISPTKISVDSSSPSKEVKNYYQSPVRGYLRPTKASISPNKNKNLTTSQTPHRLKIKEKTLRKLSPNIADISKPESRKSKNYRLTNLQLLPPAEAERDDLKKKFDKRLSGIMRSQQEHHRRKQEKQKRMSHLEQDLKKQTSFSNDYKDIRLKESLAPFDNHVRDTINKNTAFSTDNILATINTVDHREIIGNVTPKIASVNDSLPEINTDSEDEASVTLAAWAKSPYLQEQLIRQQDINPQTIFGPIPPLHTDEIFPNPRLNRLKPRQIVPKRS
modifications: dephosphorylated by λ phosphatase | dephosphorylated by λ phosphatase
notes: Ipl1 (Aurora B homologue), S. cerevisiae; Sli15 (INCENP homologue), S. cerevisiae; also called Lambda phosphatase-treated Ipl1/Sli15; source: E. coli BL21, purified (HisTrap, SEC), then treated with λ-Protein Phosphatase (NEB) at 30 °C for 30 min
B1: in assay [1], the binding result was “binds”.

B2: Ipl1/6xHis-Sli15 complex (wild type, untreated) (complex, S. cerevisiae)
chain 1: B1 chain 1
chain 2: B1 chain 2
notes: Ipl1 (Aurora B homologue), S. cerevisiae; Sli15 (INCENP homologue), S. cerevisiae; the full-length form was preferentially pulled down; also called Ipl1/Sli15; Ipl1/Sli15 complex; source: E. coli BL21, purified (HisTrap, SEC on Superdex 200)
Consider B2, for which the binding result in assay [2], in assay [3] and in assay [1] was “binds” each time.

B3: Ipl1/6xHis-Sli15^4E complex (complex, S. cerevisiae)
chain 1: B1 chain 1
chain 2: B1 chain 2 with R231E, R232E, L239E, K242E
notes: Ipl1 (Aurora B homologue), S. cerevisiae; Sli15 (INCENP homologue), S. cerevisiae, 4E mutant (plasmid pAD146 in pETDuett); also called Sli15^4E mutant; Sli15 R231E R232E L239E K242E; source: E. coli BL21, purified (HisTrap, SEC on Superdex 200)
Take B3: the binding result in assay [1] was “binds”.

Source of the values: PMC12170873, “The Spc105/Kre28 complex promotes mitotic error correction by outer kinetochore recruitment of Ipl1/Sli15” (The EMBO Journal, 2025).
